# Target: human CGRP receptor (human CRLR / human RAMP1 heterodimer) (human, UniProt Q16602 23-461; O60894 27-148)
# Assay: cell-based or functional assay
# Sequence of human CGRP receptor (human CRLR / human RAMP1 heterodimer) (Q16602 23-461 limits assumed, chain 1 of 2): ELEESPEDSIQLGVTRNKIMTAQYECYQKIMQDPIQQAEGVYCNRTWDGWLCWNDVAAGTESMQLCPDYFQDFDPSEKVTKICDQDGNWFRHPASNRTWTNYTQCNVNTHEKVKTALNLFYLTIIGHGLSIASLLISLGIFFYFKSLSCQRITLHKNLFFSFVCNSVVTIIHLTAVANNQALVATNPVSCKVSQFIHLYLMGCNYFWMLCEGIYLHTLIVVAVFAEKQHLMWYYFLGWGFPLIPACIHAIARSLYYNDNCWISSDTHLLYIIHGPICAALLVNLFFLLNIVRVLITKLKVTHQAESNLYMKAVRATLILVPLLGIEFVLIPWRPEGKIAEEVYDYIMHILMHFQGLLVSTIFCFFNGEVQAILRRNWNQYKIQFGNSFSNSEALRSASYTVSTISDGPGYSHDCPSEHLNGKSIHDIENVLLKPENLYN
# Sequence of human CGRP receptor (human CRLR / human RAMP1 heterodimer) (O60894 27-148 limits assumed, chain 2 of 2): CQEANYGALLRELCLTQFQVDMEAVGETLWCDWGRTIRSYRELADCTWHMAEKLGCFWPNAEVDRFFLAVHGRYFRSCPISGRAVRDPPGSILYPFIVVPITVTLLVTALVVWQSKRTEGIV
Binder,"Average IC50 (nM), cell-based cAMP assay, SK-N-MC cells, 3 nM human α-CGRP [nM]","Fold-improvement over 4E4 Ab (IC50, cAMP assay) [fold]","Run 1 IC50 (nM), cell-based cAMP assay, SK-N-MC cells, 3 nM human α-CGRP [nM]","Run 2 IC50 (nM), cell-based cAMP assay, SK-N-MC cells, 3 nM human α-CGRP [nM]"
"anti-CGRP receptor variant antibody 06, bivalent monoclonal antibody (antibody, human IgG1, lambda, N297G, V domains shown) VH: QVQLVESGGGVVQPGRSLRLSCAASGFTFSSFGMHWVRQAPGKGLEWVAVISFDGSIKYSVDSVKGRFTISRDNSKNTLFLQMNSLRAEDTAVYYCARDRLNYYESSGYYHYKYYGMAVWGQGTTVTVSS VL: QSVLTQPPSVSAAPGQKVTISCSGSYSNIGRKSVSWYQQLPGTAPKLLIYDNNKRPSGIPDRFSGSKSGTSATLGITGLQTGDEADYYCGTWDSRLSAVVFGGGTKLTVLG",0.15,3.7,0.14,0.15
"anti-CGRP receptor variant antibody 05, bivalent monoclonal antibody (antibody, human IgG1, lambda, N297G, V domains shown) VH: QVQLVESGGGVVQPGRSLRLSCAASGFTFSSFGMHWVRQAPGKGLEWVAVISFDGSIKYSVDSVKGRFTISRDNSKNTLFLQMNSLRAEDTAVYYCARDRLNYYESSGYYHYKYYGMAVWGQGTTVTVSS VL: QSVLTQPPSVSAAPGQKVTISCSGSFSNIGRSTVSWYQQLPGTAPKLLIYDNRWRAGGIPDRFSGSKSGTSATLGITGLQTGDEADYYCGTWDYQWKAVVFGGGTKLTVLG",0.2,2.7,0.15,0.25
"anti-CGRP receptor variant antibody 07, bivalent monoclonal antibody (antibody, human IgG1, lambda, N297G, V domains shown) VH: QVQLVESGGGVVQPGRSLRLSCAASGFYFMTYGMHWVRQAPGKGLEWVAVISFDGSIKYSVDSVKGRFTISRDNSKNTLFLQMNSLRAEDTAVYYCARDRLNYYESSGYYHYKYYGMAVWGQGTTVTVSS VL: QSVLTQPPSVSAAPGQKVTISCSGSSSNIGNNYVSWYQQLPGTAPKLLIYDNNKRPSGIPDRFSGSKSGTSATLGITGLQTGDEADYYCGTWDSRLSAVVFGGGTKLTVLG",0.29,1.9,0.18,0.39
"anti-CGRP receptor variant antibody 02, bivalent monoclonal antibody (antibody, human IgG1, lambda, N297G, V domains shown) VH: QVQLVESGGGVVQPGRSLRLSCAASGFTFSSFGMHWVRQAPGKGLEWVAVISFDGSIKYSVDSVKGRFTISRDNSKNTLFLQMNSLRAEDTAVYYCARDRLNYYESSGYYHYKYYGMAVWGQGTTVTVSS VL: QSVLTQPPSVSAAPGQKVTISCSGSRSNIGIKAVSWYQQLPGTAPKLLIYDNNKRPSGIPDRFSGSKSGTSATLGITGLQTGDEADYYCGTWDSRLSAVVFGGGTKLTVLG",0.12,4.6,0.1,0.13
"anti-CGRP receptor variant antibody 09, bivalent monoclonal antibody (antibody, human IgG1, lambda, N297G, V domains shown) VH: QVQLVESGGGVVQPGRSLRLSCAASGFTFSSFGMHWVRQAPGKGLEWVAVISFAGEIDYYVDSVKGRFTISRDNSKNTLFLQMNSLRAEDTAVYYCARDRLNYYESSGYYHYKYYGMAVWGQGTTVTVSS VL: QSVLTQPPSVSAAPGQKVTISCSGSSSNIGNNYVSWYQQLPGTAPKLLIYDNNKRPSGIPDRFSGSKSGTSATLGITGLQTGDEADYYCGTWDSRLSAVVFGGGTKLTVLG",0.86,0.6,0.73,1
"anti-CGRP receptor variant antibody 08, bivalent monoclonal antibody (antibody, human IgG1, lambda, N297G, V domains shown) VH: QVQLVESGGGVVQPGRSLRLSCAASGFTFSSFGMHWVRQAPGKGLEWVAVISFDGSIKYSVDSVKGRFTISRDNSKNTLFLQMNSLRAEDTAVYYCARDRLNYYESSGYYHYKYYGMAVWGQGTTVTVSS VL: QSVLTQPPSVSAAPGQKVTISCSGSYSNIGWWPVSWYQQLPGTAPKLLIYDNNKRPSGIPDRFSGSKSGTSATLGITGLQTGDEADYYCGTWDSRLSAVVFGGGTKLTVLG",0.3,1.8,0.28,0.31
"anti-CGRP receptor variant antibody 01, bivalent monoclonal antibody (antibody, human IgG1, lambda, N297G, V domains shown) VH: QVQLVESGGGVVQPGRSLRLSCAASGFTFSSFGMHWVRQAPGKGLEWVAVISFDGSIKYSVDSVKGRFTISRDNSKNTLFLQMNSLRAEDTAVYYCARDRLNYYESSGYYHYKYYGMAVWGQGTTVTVSS VL: QSVLTQPPSVSAAPGQKVTISCSGSYSNIGRYSVSWYQQLPGTAPKLLIYDNNKRPSGIPDRFSGSKSGTSATLGITGLQTGDEADYYCGTWDSRLSAVVFGGGTKLTVLG",0.14,3.9,0.13,0.14
"anti-CGRP receptor variant antibody 04, bivalent monoclonal antibody (antibody, human IgG1, lambda, N297G, V domains shown) VH: QVQLVESGGGVVQPGRSLRLSCAASGFTFSSFGMHWVRQAPGKGLEWVAVISFDGSIKYSVDSVKGRFTISRDNSKNTLFLQMNSLRAEDTAVYYCARDRLNYYRSFGYYGYHYYGMAVWGQGTTVTVSS VL: QSVLTQPPSVSAAPGQKVTISCSGSSSNIGNNYVSWYQQLPGTAPKLLIYDNNKRPSGIPDRFSGSKSGTSATLGITGLQTGDEADYYCGTWDSRLSAVVFGGGTKLTVLG",0.17,3.1,0.14,0.21
"4E4.2 parental antibody, bivalent monoclonal antibody (antibody, human IgG1, lambda, N297G, V domains shown) VH: QVQLVESGGGVVQPGRSLRLSCAASGFTFSSFGMHWVRQAPGKGLEWVAVISFDGSIKYSVDSVKGRFTISRDNSKNTLFLQMNSLRAEDTAVYYCARDRLNYYESSGYYHYKYYGMAVWGQGTTVTVSS VL: QSVLTQPPSVSAAPGQKVTISCSGSSSNIGNNYVSWYQQLPGTAPKLLIYDNNKRPSGIPDRFSGSKSGTSATLGITGLQTGDEADYYCGTWDSRLSAVVFGGGTKLTVLG",0.45,1.2,0.34,0.56
